Test results taken from patent US20240252614A1 (Pfizer, published 2024).

Key:
hMPV107 = molecular target: T1, hMPV107 (hMPV B, UniProt Q6WB98 19-102); experiment: BLI, no stress
T1 construct: S149T
Method: (§1) All measurements were conducted at 30° C. temperature in 96-well black plates (Corning, Corning, NY) with a final volume of 240 μL per well at a constant agitation rate of 1000 RPM.
Conformation integrity of hMPV B F protein mutants were evaluated by a thermal stress experiment. Crude cell culture supernatants were normalized based on the results of the titer quantitation and then incubated for 1 hour at room temperature and two higher temperatures. For the testing of hMPV B single mutants, the two temperatures were 53° C. and 56° C. After the incubation, the protein mutants were probed with prefusion specific monoclonal antibody hMPV-2 by OCTET HTX. Anti-Human IgG Fc Capture (AHC) biosensors were first equilibrated in PB before being dipped into more PB for to establish the initial baseline. Biosensors were incubated with hMPV-2 before being equilibrated in PB to establish the experimental baseline. The mAb-bound biosensors were then dipped into the thermal stresses cell culture supernatants for 5 minutes.

hMPV067 = molecular target: T2, hMPV067 (hMPV A, UniProt Q6WB98 19-102); experiment: BLI, 53C stress
T2 construct: S149T
Method: (§2) The OCTET HTX (Sartorius, Gottingen, Germany) instrument was used to evaluate the expression and conformational integrity for each mutant. All measurements were conducted at 30° C. temperature in 96-well black plates (Corning, Corning, NY) with a final volume of 240 μL per well at a constant agitation rate of 1000 RPM.
Conformation integrity of hMPV A F protein mutants were evaluated by thermal stress experiments. Crude cell culture supernatants were normalized based on the results of the titer quantitation and then incubated for 1 hour at room temperature and two higher temperatures. […] Anti-Human IgG Fc Capture (AHC) biosensors were first equilibrated in PB before being dipped into more PB to establish the initial baseline. […] The mAb-bound biosensors were then dipped into the thermal stressed cell culture supernatants for 5 minutes. The kinetics analysis was done by OCTET data analysis software (version 12.0, Sartorius) based on curve fitting of the entire associate step.

PIV1027 = molecular target: T3, PIV1027 (PIV1); experiment: BLI, 53C stress;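 also: binding of thermally stressed PIV1 F mutant supernatant to mAb on AHC biosensors for 5 min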
T3 construct: S473L
Method: as §1
(§3) Conformation integrity of PIV1 F protein mutants were evaluated by a thermal stress experiment. Crude cell culture supernatants were normalized based on the results of the titer quantitation and then incubated for 1 hour at room temperature and two higher temperatures. For the initial testing of PIV1 mutants, the two temperatures were 50° C. and 53° C. […] Anti-Human IgG Fc Capture (AHC) biosensors were first equilibrated in PB for before being dipped into more PB to establish the initial baseline. […] The mAb-bound biosensors were then dipped into the thermal stresses cell culture supernatants for 5 minutes.

PIV1033 = molecular target: T4, PIV1033 (PIV1); experiment: BLI, 53C stress;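 also: binding of thermally stressed PIV1 F mutant supernatant to mAb on AHC biosensors for 5 min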
T4 construct: T198A
Method: as §1, §3

PIV1028 = molecular target: T5, PIV1028 (PIV1); experiment: BLI, 53C stress;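 also: binding of thermally stressed PIV1 F mutant supernatant to mAb on AHC biosensors for 5 min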
T5 construct: A480L
Method: as §1, §3

PIV1031 = molecular target: T6, PIV1031 (PIV1); experiment: BLI, 53C stress;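 also: binding of thermally stressed PIV1 F mutant supernatant to mAb on AHC biosensors for 5 min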
T6 construct: A466L, S473L
Method: as §1, §3

PIV1026 = molecular target: T7, PIV1026 (PIV1); experiment: BLI, 53C stress
T7 construct: S473V
Method: as §1, §3

PIV1030 = molecular target: T8, PIV1030 (PIV1); experiment: BLI, 53C stress
T8 construct: A466L, S473A
Method: as §1, §3

PIV1039 = molecular target: T9, PIV1039 (PIV1); experiment: BLI, 53C stress
T9 construct: A128P
Method: as §1, §3

PIV1036 = molecular target: T10, PIV1036 (PIV1); experiment: BLI, 53C stress
T10 construct: G134A
Method: as §1, §3

PIV1023 = molecular target: T11, PIV1023 (PIV1); experiment: BLI, 53C stress
T11 construct: A466L
Method: as §1, §3

PIV1014 = molecular target: T12, PIV1014 (PIV1); experiment: BLI, 53C stress
T12 construct: Q92C-G134C
Method: as §1, §3

PIV1024 = molecular target: T13, PIV1024 (PIV1); experiment: BLI, 53C stress
T13 construct: A466V
Method: as §1, §3

PIV1052 = molecular target: T14, PIV1052 (PIV1); experiment: BLI, no stress
T14 construct: Q92C-G134C, A466V, S473V; also called PV1052
Method: as §2, §3

PIV1055 = molecular target: T15, PIV1055 (PIV1); experiment: BLI, no stress
T15 construct: A466L, S473L, G134A
Method: as §2, §3

PIV1068 = molecular target: T16, PIV1068 (PIV1); experiment: BLI, no stress
T16 construct: A466I, S473I, A480I, Q92L, G134A
Method: as §2, §3

PIV1048 = molecular target: T17, PIV1048 (PIV1); experiment: BLI, no stress
T17 construct: Q92C-G134C, A466L, S473L, A480L
Method: as §2, §3

PIV1059 = molecular target: T18, PIV1059 (PIV1); experiment: BLI, no stress
T18 construct: F113G, F114S, A466L, S473L, A480L, G134A, Q92L
Method: as §2, §3

PIV1066 = molecular target: T19, PIV1066 (PIV1); experiment: BLI, no stress
T19 construct: A466I, S473I, A480L, Q92L, G134A
Method: as §2, §3

PIV1050 = molecular target: T20, PIV1050 (PIV1); experiment: BLI, no stress
T20 construct: F113G, F114S, Q92C-G134C, A466V, S473V, A480V
Method: as §2, §3

PIV1061 = molecular target: T21, PIV1061 (PIV1); experiment: BLI, no stress
T21 construct: Q92L, G134A, A466L, S473L
Method: as §2, §3

PIV1058 = molecular target: T22, PIV1058 (PIV1); experiment: BLI, no stress
T22 construct: A466L, S473L, Q92A, G134A
Method: as §2, §3

PIV1049 = molecular target: T23, PIV1049 (PIV1); experiment: BLI, no stress
T23 construct: Q92C-G134C, A466L, S473L
Method: as §2, §3

PIV1064 = molecular target: T24, PIV1064 (PIV1); experiment: BLI, no stress
T24 construct: F113G, F114S, Q92C-G134C, A466I, S473I, A480L
Method: as §2, §3

PIV1057 = molecular target: T25, PIV1057 (PIV1); experiment: BLI, no stress
T25 construct: A466L, S473L, A480L, Q92A, G134A
Method: as §2, §3

PIV1056 = molecular target: T26, PIV1056 (PIV1); experiment: BLI, no stress
T26 construct: F113G, F114S, A466L, S473L, A480L, Q92A, G134A
Method: as §2, §3

PIV1067 = molecular target: T27, PIV1067 (PIV1); experiment: BLI, no stress
T27 construct: F113G, F114S, Q92C-G134C, A466I, S473I, A480I
Method: as §2, §3

[1] = molecular target: T28, PIV1 F literature prefusion comparison (PIV1); experiment: BLI, no stress
T28 construct: F113G, F114S, A466I, S473I (Stewart-Jones et al. 2018)
Method: as §2, §3

PIV1062 = molecular target: T29, PIV1062 (PIV1); experiment: BLI, no stress
T29 construct: F113G, F114S, A466L, S473L, A480L, Q92A, G134L
Method: as §2, §3

PIV1060 = molecular target: T30, PIV1060 (PIV1); experiment: BLI, no stress
T30 construct: Q92L, G134A, A466L, S473L, A480L
Method: as §2, §3

PIV1053 = molecular target: T31, PIV1053 (PIV1); experiment: BLI, no stress
T31 construct: F113G, F114S, A466L, S473L, A480L, G134A
Method: as §2, §3

PIV1047 = molecular target: T32, PIV1047 (PIV1); experiment: BLI, no stress
T32 construct: F113G, F114S, Q92C-G134C, A466L, S473L, A480L
Method: as §2, §3

PIV1051 = molecular target: T33, PIV1051 (PIV1); experiment: BLI, no stress
T33 construct: Q92C-G134C, A466V, S473V, A480V
Method: as §2, §3

PIV1054 = molecular target: T34, PIV1054 (PIV1); experiment: BLI, no stress
T34 construct: A466L, S473L, A480L, G134A
Method: as §2, §3

PIV1063 = molecular target: T35, PIV1063 (PIV1); experiment: BLI, no stress
T35 construct: A466L, S473L, A480L, Q92A, G134L
Method: as §2, §3

PIV1065 = molecular target: T36, PIV1065 (PIV1); experiment: BLI, no stress
T36 construct: F113G, F114S, Q92C-G134C, A466I, S473I
Method: as §2, §3

[2] = molecular target: stabilized hPIV3 F protein trimer in pre-fusion conformation (human parainfluenza virus 3); experiment: BLI, mAb captured, F protein at 50 nM
[3] = molecular target: T37, stabilized hPIV1 F protein trimer in pre-fusion conformation (human parainfluenza virus 1); experiment: BLI, mAb captured, F protein at 50 nM
T37 construct: also called preF-hPIV1; HPIV1 pre-fusion F protein

B1: hMPV-2 mAb (antibody, V domains shown)
VH: QVQLQQSGAEVKKPGASVKVSCKASGYTFTSYGISWVRQAPGQGLEWMGWISGYNGNTNYAQTFQGTFTMTTDTSTSTAYMELRRLRSGDTAVYYCARDRYYASGSYNGMDVWGQGTTVTVSS
VL: QSALTQPPSASGAPGQRVTVSCSGSSSNVGSSSVYWYQQLPGTAPKLLIYRNNQRPSGVPDRFSGSKSGTSASLAISGLRSEDEADYYCAAWDDSLSGWVFGGGTKLTVLG
notes: human IgG1
Response Shift (hMPV107): 0.89 nm | Response Shift (hMPV067): 0.184 nm

B2: PIV1-8 mAb (antibody, V domains shown)
VH: QVQLVQSGAEVKKPGSSVKVSCEASGGTFSNYVISWVRQAPGQGLEWMGGIIPVFATAKYAQKFQGRVTIIADQSTNTAYLELSSLRSDDTAVYFCASVDSGGTWWDAFAIWGQGTMVTVSS
VL: QAVVTQPRSVSGSPGQAVTISCTGTSSDVGGYNYVSWYQHHPGKAPKLIIYDVTKRPSGVPDRFSGSKSGNTASLTISGLQTEYEADYYCCSYAGSYTLVFGGGTKLTVLG
notes: human IgG1; also called hPIV1-8 mAb; hPIV1-8
Response Shift (PIV1027): -0.02 nm | Response Shift (PIV1033): -0.073 nm | Response Shift (PIV1028): -0.052 nm | Response Shift (PIV1031): 0.489 nm | Response Shift (PIV1026): -0.039 nm | Response Shift (PIV1030): -0.046 nm | Response Shift (PIV1039): -0.055 nm | Response Shift (PIV1036): -0.042 nm | Response Shift (PIV1023): -0.001 nm | Response Shift (PIV1014): 0.009 nm | Response Shift (PIV1024): -0.016 nm | Response Shift (PIV1052): 0.67 nm | Response Shift (PIV1055): 0.757 nm | Response Shift (PIV1068): 0.628 nm | Response Shift (PIV1048): 0.737 nm | Response Shift (PIV1059): 0.841 nm | Response Shift (PIV1066): 0.642 nm | Response Shift (PIV1050): 0.848 nm | Response Shift (PIV1061): 0.619 nm | Response Shift (PIV1058): 0.688 nm | Response Shift (PIV1049): 0.636 nm | Response Shift (PIV1064): 0.912 nm | Response Shift (PIV1057): 0.718 nm | Response Shift (PIV1056): 0.739 nm | Response Shift (PIV1067): 0.849 nm | Response Shift [1]: 0.709 nm | Response Shift (PIV1062): 0.619 nm | Response Shift (PIV1060): 0.584 nm | Response Shift (PIV1053): 0.857 nm | Response Shift (PIV1047): 0.79 nm | Response Shift (PIV1051): 0.725 nm | Response Shift (PIV1054): 0.764 nm | Response Shift (PIV1063): -0.116 nm | Response Shift (PIV1065): 0.809 nm | Binding response BLI [2]: -0.052 nm | Binding response BLI [3]: 1.96 nm
